The data set concerns the target cytosolically localized BRD4 (lacks NLS), O60885.

B1: BTK-FLAG (Bruton's Tyrosine Kinase, FLAG-tagged, expressed in HEK293T cells and treated with BTK-BRD4 PHICS) (protein)
chain: MAAVILESIFLKRSQQKKKTSPLNFKKRLFLLTVHKLSYYEYDFERGRRGSKKGSIDVEKITCVETVVPEKNPPPERQIPRRGEESSEMEQISIIERFPYPFQVVYDEGPLYVFSPTEELRKRWIHQLKNVIRYNSDLVQKYHPCFWIDGQYLCCSQTAKNAMGCQILENRNGSLKPGSSHRKTKKPLPPTPEEDQILKKPLPPEPAAAPVSTSELKKVVALYDYMPMNANDLQLRKGDEYFILEESNLPWWRARDKNGQEGYIPSNYVTEAEDSIEMYEWYSKHMTRSQAEQLLKQEGKEGGFIVRDSSKAGKYTVSVFAKSTGDPQGVIRHYVVCSTPQSQYYLAEKHLFSTIPELINYHQHNSAGLISRLKYPVSQQNKNAPSTAGLGYGSWEIDPKDLTFLKELGTGQFGVVKYGKWRGQYDVAIKMIKEGSMSEDEFIEEAKVMMNLSHEKLVQLYGVCTKQRPIFIITEYMANGCLLNYLREMRHRFQTQQLLEMCKDVCEAMEYLESKQFLHRDLAARNCLVNDQGVVKVSDFGLSRYVLDDEYTSSVGSKFPVRWSPPEVLMYSKFSSKSDIWAFGVLMWEIYSLGKMPYERFTNSETAEHIAQGLRLYRPHLASEKVYTIMYSCWHEKADERPTFKILLSNILDVMDEES
As for B1, the “BRD4 phosphorylation (pBRD4 immunoblot) [panel B]” value was “clear pBRD4 band in lane PHICS; no visible band in lanes DMSO and iPHICS; total BRD4 alike in all lanes”; the “BRD4 phosphorylation (pBRD4 immunoblot) [panel C]” value is “strongest pBRD4 band in lane PHICS; weak bands in lanes DMSO and iPHICS; total BRD4 alike in all lanes”; the “BRD4 phosphorylation (pBRD4 immunoblot) [panel F]” value is “clear pBRD4 band in lane 5; barely visible signal in lanes DMSO and 6; total BRD4 alike in all lanes”; the “BRD4 phosphorylation (pBRD4 immunoblot) [panel G]” value is “clear pBRD4 band in lane 7; no visible band in lanes DMSO and 8; total BRD4 alike in all lanes”.

Values taken from patent US20260174880.
